{"source": "paper PMC2192906", "key": {"[1]": {"target": "QL9/L^d complex on the surface of T2-L^d cells (UniProt Q60597)", "assay": "radioligand binding"}, "[2]": {"target": "biotinylated L^d–QL9 complex (immobilised on the chip) (UniProt Q60597)", "assay": "SPR"}, "[3]": {"target": "2C scTCR 102/55 double mutant (αS102A, βT55A) (mouse)", "assay": "SPR"}, "[4]": {"target": "2C single-chain TCR (scTCR), wild-type, thioredoxin fusion (mouse)", "assay": "SPR"}, "[5]": {"target": "2C scTCR 102/55 double mutant (αS102A, βT55A) (mouse)", "assay": "SPR", "remark": "listed apart in the source"}}, "note": "pKd: −log10 of the molar value. Like-named read-outs stand apart in the source and are kept apart here.", "data": [{"substance": "2C scTCR αS102A mutant", "values": [{"measurement": "ΔΔG against wild-type", "setting": "[1]", "result": -0.31, "unit": "kcal/mol"}]}, {"substance": "2C scTCR 102/56 double mutant (αS102A, βE56A)", "values": [{"measurement": "ΔΔG against wild-type", "setting": "[1]", "result": -0.32, "unit": "kcal/mol"}]}, {"substance": "2C scTCR βT55A mutant", "values": [{"measurement": "ΔΔG against wild-type", "setting": "[1]", "result": -0.23, "unit": "kcal/mol"}]}, {"substance": "2C scTCR αS51P mutant (Vα3.2-like)", "values": [{"measurement": "fold reduced against wild-type (IC50 ratio)", "setting": "[1]", "result": 15, "unit": "fold"}]}, {"substance": "2C scTCR βE56K mutant", "values": [{"measurement": "ΔΔG against wild-type", "setting": "[1]", "result": 1.06, "unit": "kcal/mol"}]}, {"substance": "2C scTCR 102/55 double mutant (αS102A, βT55A)", "values": [{"measurement": "pKd", "setting": "[2]", "result": 6.15}, {"measurement": "fold better than wild-type (IC50 ratio)", "setting": "[1]", "result": 2.3, "unit": "fold"}]}, {"substance": "purified soluble L^d–QL9 complex (from UniProt Q60597 41-1023) (peptide-MHC)", "values": [{"measurement": "pKd", "setting": "[3]", "result": 5.92}, {"measurement": "pKd", "setting": "[4]", "result": 5.72}, {"measurement": "pKd", "setting": "[5]", "result": 5.62}, {"measurement": "koff of wild-type over koff of 102/55 (fold faster)", "setting": "[5]", "result": 3.2, "unit": "fold"}, {"measurement": "kon of wild-type over kon of 102/55 (fold faster)", "setting": "[5]", "result": 2.4, "unit": "fold"}]}, {"substance": "2C single-chain TCR (scTCR), wild-type, thioredoxin fusion", "values": [{"measurement": "pKd", "setting": "[2]", "result": 5.72}]}, {"substance": "2C scTCR βE56A mutant", "values": [{"measurement": "ΔΔG against wild-type", "setting": "[1]", "result": -0.11, "unit": "kcal/mol"}]}]}
